# Experimental data as given in US8138148B2, “GDNF derived peptides” (Copenhagen University, priority 2005, dated 2012).
# B1: GDNF: glial cell line-derived neurotrophic factor, full-length protein used as stimulus (protein)
# chain: SPDKQMAVLPRRERNRQAAAANPENSRGKGRRGQRGKNRGCVLTAIHLNVTDLGLGYETKEELIFRYCSGSCDAAETTYDKILKNLSRNRRLVSDKVGQACCRPIAFDDDLSFLDDNLVYHILRKHSAKRCGCI
# Legend:
# Type in all cases: cell-based, rat
# hippocampal neurons [1] = assay: Neurite outgrowth assay, co-cultures of hippocampal neurons on control fibroblasts or NCAM-expressing fibroblasts; details: 24 hours
# Protocol: (§1) Two different versions of the neurite outgrowth assay were used in this study, monocultures and co-cultures.
# (§2) In monocultures, neurons are grown directly on plastic and the only neuritogenic stimulus is the one presented by the added substance. In co-cultures, neurons are grown on top of a confluent monolayer of fibroblasts expressing NCAM-140 (LBN110) or NCAM-negative control fibroblasts (LVN212). NCAM on the neurons interact with NCAM on LBN110 cells thereby stimulating neurite outgrowth from the neurons. This system thus permits the study of NCAM-NCAM interactions and interactions between NCAM and other molecules.
# (§3) For all experiments cells were grown in neurobasal medium with supplements as described above in a final volume of 300 μl/well in 8-well LabTek® Permanox Chamber slides or 500 μl/well in 4-well LabTek® Permanox Chamber slides.
# (§4) For cocultures, L-cells were seeded in 8-well LabTek® Permanox Chamber slides at a density of 100.000 cells/well, except for transfection experiments where cells were seeded in 4-well LabTek® Permanox Chamber slides at a density of 200.000 cells/well. L-cells were grown for 24 hours in DMEM supplemented with 10% (v/v) FCS, 1% (v/v) glutamax, 100 U/ml penicillin, 100 μg/ml streptomycin, 2.5 μg/ml fungizone, and 567 μg/ml neomycin (G418), followed by washing twice in neurobasal medium with supplements before primary hippocampal neurons were seeded at a density of 7.000 cells/well in 8-well slides or 20.000 cells/well in 4-well slides.
# (§5) To evaluate the effect peptides on neurite outgrowth, GDNF and the peptides, G1, G2, G3, A1, A2, A3, N1, N2 and N3 were diluted to the appropriate concentrations and added to the neurons approximately 10 minutes after seeding. Medium alone was added to controls, and cells were incubated for 24 hours.
# (§6) Neurite outgrowth experiments were terminated after the stated time by fixating the cells. To visualize neurons and their neurites, immunostaining of GAP-43 was performed. This staining is specific for neurons. Transfected cells and their neurites should be visible without immunostaining due to the fluorescence emitted by GFP. […] GFP is a cytoplasmic protein, and since thin neurites only contain a small volume of cytoplasm, GFP is only found in small amounts in most neurites. Therefore, a double-staining protocol, where cells were immunostained against GFP and GAP-43, was adopted. This protocol allowed the identification of transfected cells on the basis of GFP-staining in combination with visualization of neurites based on GAP-43-staining.
# Without prior removal of the medium 300 μl/well (8-well slides) or 500 μl/well (4-well slides) of a PBS solution containing 0.4 mM CaCl2, 0.05 M sucrose and 8% (v/v) formaldehyde was added to the cultures for 20 minutes. Cells were then washed 10 minutes in PBS followed by washing in PBS with 1% (w/v) BSA for 20 minutes, after which cells were incubated with primary antibodies overnight at 4° C.
# Rabbit anti-rat GAP-43 antibodies were diluted 1:1000 for staining of untransfected cells and 1:2000 for staining of transfected cells. Mouse anti-GFP antibodies were diluted 1:1000. Antibodies were diluted in a PBS solution containing 7% (v/v) FCS to block unspecific binding, 50 mM glycine to block formaldehyde used for fixation, 0.2% (v/v) saponin to permeabilize cells, and 0.02% (v/v) NaN3 to preserve antibodies for later use.
# The next day cells were washed 10 minutes in PBS followed by washing in PBS with 1% (w/v) BSA for 20 minutes. Cells were then incubated with secondary antibodies diluted in PBS with 1% (w/v) BSA for one hour at room temperature. Goat anti-rabbit IgG antibodies conjugated to Alexa 488 were diluted 1:1000 for untransfected cells and 1:2000 for transfected cells. Goat anti-mouse IgG antibodies conjugated to Alexa 546 were diluted 1:1000. Finally cells were washed 3×7 minutes in PBS and mounted with fluorescent mounting medium. […]
# hippocampal neurons [2] = assay: Neurite outgrowth of hippocampal neurons transfected with dominant negative FGFR; details: 10 ng/ml GDNF or 3 μg/ml GDNFp1, 18 hours, dnFGFR vs empty vector
# Protocol: as §4
# Additionally, neurons were transiently transfected with a dominant negative version of the FGFR (dnFGFR), As an alternative to the use of a pharmacological FGFR inhibitor, The dnFGFR plasmid encodes an FGFR that lacks the kinase domain. This mutant receptor inhibits the function of wild type FGFR by engaging in dimers that lack kinase activity. Transfection with an empty vector served as control. Transfection was also done with wtFGFR in order to assess the effect of overexpressing the FGFR.
# Transfections were performed with a Nucleofector™ device and a Rat Neuron Nucleofector™ kit (Amaxa Inc., Gaithersburg, Md., USA). This transfection method is based on electroporation in combination with a Nucleofector™ solution containing lipophilic agents. These agents form liposomes containing the plasmid DNA, which then enter the cells during electroporation. The method allows transfection of undividing cells such as neurons. 3 μg of the plasmid of interest was mixed with the Nucleofector™ solution and primary hippocampal neurons were resuspended in the mixture, electroporated in the Nucleofector™ device, and transferred to neurobasal medium with supplements and 5% (v/v) FCS. Cells were then incubated for 2 hours after which they were resuspended in medium without serum, counted, seeded and incubated for 6 hours before GDNF or GDNFp1 was added. Medium alone was added to control and cells were incubated for 18 hours.
# All transient transfections in this study included co-transfection with a plasmid encoding EGFP, which allows the identification of transfected cells. To ensure that all EGFP-expressing cells also are transfected with the plasmid of interest, a ratio of […] between the EGFP-encoding plasmid and the plasmid of interest was used (i.e. 0.5 μg EGFP-encoding plasmid was used for each transfection).
# Neurite outgrowth experiments were terminated after the stated time by fixating the cells. To visualize neurons and their neurites, immunostaining of GAP-43 was performed. This staining is specific for neurons. Transfected cells and their neurites should be visible without immunostaining due to the fluorescence emitted by GFP. […]
# [3] = test system: primary hippocampal neurons; assay: Neurite outgrowth assay, monocultures of primary hippocampal neurons; details: monoculture, stimulated 24 hours; GDNF 1-100 ng/ml, peptides 0.1-27 μg/ml; versus medium alone
# Protocol: as §1, §2, §3
# For monocultures, primary hippocampal neurons were seeded in 8-well LabTek® Permanox Chamber slides at a density of 10,000 cells/well.
# as §5
# as §6, with “GAP-43-staining. […]” for “GAP-43-staining.”
molecule,measurement,setting,value
B1,"neurite outgrowth, overall effect of treatment, neurons grown on NCAM-expressing fibroblasts","hippocampal neurons [1]; co-culture on NCAM-expressing fibroblasts, GDNF 1-100 ng/ml, peptides 0.1-81 μg/ml",overall significant effect
same,"neurite outgrowth, overall effect of treatment, neurons grown on control fibroblasts","hippocampal neurons [1]; co-culture on control fibroblasts, GDNF 1-100 ng/ml, peptides 0.1-81 μg/ml",overall significant effect
same,difference between neurite outgrowth on control fibroblasts and on NCAM-expressing fibroblasts across concentrations (one-way ANOVA),"hippocampal neurons [1]; difference per concentration, expressed as percentage of control",mean differences are not all the same
same,"neurite outgrowth mediated by the substance after transfection with dominant negative FGFR, on NCAM-expressing fibroblasts",hippocampal neurons [2]; NCAM-expressing fibroblasts,decreases neurite outgrowth
same,"neurite outgrowth mediated by the substance after transfection with dominant negative FGFR, on control fibroblasts",hippocampal neurons [2]; control fibroblasts,decreases neurite outgrowth
same,"neurite outgrowth, overall effect of treatment (one-way ANOVA)",[3],overall statistically significant effect
